In test [1] the target is T1, CBF1/RBPJk (UniProt Q06330 1-500).
T1 construct: also called CBF1 tethering protein
Description: EMSA with two-fold increases in peptide amount, against type A EBNA2 252-425. On the technique in general: A gel shift assay detects complexes by their altered migration in electrophoresis.

Test [2] has as its target T1, CBF1/RBPJk. Nature of the test: EMSA supershift with heparin-agarose purified CBF1 and Cp CBF1 site probe; phosphoimager, relative to wild-type EBNA2(252-425).
Test [3] deals with T1, CBF1/RBPJk. Nature of the test: EMSA, against wild-type EBNA2 252-425.

Where a chain is given by its changes, count along the chain named.

T1 sequence (Q06330 whole entry): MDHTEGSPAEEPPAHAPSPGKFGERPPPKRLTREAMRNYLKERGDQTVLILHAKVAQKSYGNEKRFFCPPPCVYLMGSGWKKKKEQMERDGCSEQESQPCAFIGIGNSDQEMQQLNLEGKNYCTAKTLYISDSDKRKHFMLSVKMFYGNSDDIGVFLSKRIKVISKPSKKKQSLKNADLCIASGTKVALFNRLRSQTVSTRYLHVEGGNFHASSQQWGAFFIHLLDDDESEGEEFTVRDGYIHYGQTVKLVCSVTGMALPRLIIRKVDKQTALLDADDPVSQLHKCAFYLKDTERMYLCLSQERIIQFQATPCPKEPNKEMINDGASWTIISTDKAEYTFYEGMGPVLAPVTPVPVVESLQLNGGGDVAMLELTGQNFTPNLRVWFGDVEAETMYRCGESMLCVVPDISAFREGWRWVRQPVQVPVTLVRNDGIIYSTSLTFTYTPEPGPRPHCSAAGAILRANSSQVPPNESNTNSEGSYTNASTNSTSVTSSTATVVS

B1: type B EBNA2 comprising amino acids 216-392 (other)
chain: GHQLSLPPHPPPHQSTPHCSSDSTGLPPPPTSYSIPSMTLSPEPLPPPAAPAHPLPGVIYDQQALPPTPGPPWWPPVRDPTPTTQTPPTNTKQGPDQGQGRGRWRGRGRSKGRGRMHKLPEPRRPGPDTSSPSMPQLSPVVSLHQGQGPENSPTPGPSTAGPVCRVTPSATPDISPI
notes: range 216-392; Prepared by in vitro transcription and translation; gene provided by Dr. Elliott Kieff; also called type B peptide
Consider B1, for which, in test [1], the “fold more peptide required than type A EBNA2 for conversion of all the CBF1 to the supershifted complex” value amounted to 2 fold.

B2: wild-type EBNA2 peptide comprised of amino acids 252-425 (type A) (other)
chain: LHVPDQSMHPLTHQSTPNDPDSPEPRSPTVFYNIPPMPLPPSQLPPPAAPAQPPPGVINDQQLHHLPSGPPWWPPICDPPQPSKTQGQSRGQSRGRGRGRGRGRGKGKSRDKQRKPGGPWRPEPNTSSPSMPELSPVLGLHQGQGAGDSPTPGPSNAAPVCRNSHTATPNVSPI
notes: range 252-425; In vitro transcribed and translated, labeled with 35S-methionine; also called aa252-425 (wild-type); E2 252-425
Consider B2, for which the “% Complex formation” value in test [2] came out at 100%.

B3: EBNA2 252-425 PI326SR (CR6) (other)
chain: B2 chain with P75S, I76R
notes: range 252-425; In vitro transcribed and translated
For the molecule B3, the “% Complex formation” value in test [2] came to 5%.

B4: EBNA2 252-425 LGL389SRT (CR7) (other)
chain: B2 chain with L138S, G139R, L140T
notes: range 252-425; In vitro transcribed and translated; also called CR7 mutation
For B4, the “fold reduction in the amounts of EBNA2/CBF1 complex formed” value in test [3] is approximately 2 fold. Further, the “% Complex formation” value in test [2] stood at 50%.

B5: EBNA2 252-425 GP320SR (CR6) (other)
chain: B2 chain with G69S, P70R
notes: as for B3
Take B5: in test [2], the “% Complex formation” value is 90%.

B6: EBNA2 252-425 SR360VD (PKC) (other)
chain: B2 chain with S109V, R110D
notes: range 252-425; In vitro transcribed and translated; also called PKC mutation
For B6, the “fold reduction in the amounts of EBNA2/CBF1 complex formed” value in test [3] is approximately 2 fold. The “% Complex formation” value in test [2] stood at 60%.

B7: EBNA2 252-425 WW323SR (CR6) (other)
chain: B2 chain with W72S, W73R
notes: as for B3
With B7, the “% Complex formation” value in test [2] was less than 1%.

These data come from patent US6495144 (Johns Hopkins, dated 2002).
